Results from article PMC9474881.

Target: PsgIBP_L, larger (28 kDa) ice-binding protein isoform from Psychromyces glacialis (Psychromyces glacialis)
Test: SEC; analytical Superose12 column, 20 mM Tris-HCl pH 8.0 + 500 mM NaCl, 0.8 ml/min, 4 °C; 0.5 mL of 1 mg/ml protein loaded; molecular weight from a calibration line with five reference proteins

stoichiometry N: 2
Substance: PsgIBP_L, larger (28 kDa) ice-binding protein isoform from Psychromyces glacialis (natural protein)
